Test results from patent US20180044434A1 (PUBLIC UNIVERSITY CORPORATION YOKOHAMA CITY UNIVERSITY, published 2018).
Positions count from the first letter of the chain named.

B1: humanized anti-PAD4 antibody derived from G8, VH H4.00 / VL L4.00 (antibody, human IgG1, kappa, V domains shown)
VH: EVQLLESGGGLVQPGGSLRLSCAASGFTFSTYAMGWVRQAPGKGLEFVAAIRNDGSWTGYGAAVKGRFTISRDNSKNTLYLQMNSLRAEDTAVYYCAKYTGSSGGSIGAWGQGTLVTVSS
VL: SYELTQPPSVSVSPGQTARITCSGGNRNYYYGWYQQKPGQAPVLVIYANDKRPSGIPERFSGSSSGTTVTLTISGVQAEDEADYYCGTADTGKYVFGGGTKLTVLG
notes: IgG1 kappa; also called G8 H4.00/L4.00
B2: Humanized Ab #G8-H4.00/L4.29 (antibody, human IgG1, kappa, V domains shown)
VH: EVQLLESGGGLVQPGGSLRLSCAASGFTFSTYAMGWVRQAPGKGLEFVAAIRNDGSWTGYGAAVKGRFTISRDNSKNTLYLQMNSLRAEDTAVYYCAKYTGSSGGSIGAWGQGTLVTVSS
VL: B1 VL with L44T, S64N, T67S, V69T
notes: also called humanized anti-PAD4 antibody derived from G8 (IgG1 kappa); G8 VH H4.00 / VL L4.29
B3: humanized anti-PAD4 antibody derived from G8, VH H4.32 / VL L4.29 (antibody, IgG1, V domains shown)
VH: EVQLLESGGGLVQPGGSLRLSCAASGFTFSTYAMGWVRQAPGKGLEFVAAIRNDGSWTGYGAAVKGRVTISRDNSKNTVYLQMNSLRAEDTAVYYCAKYTGSSGGSIGAWGQGTLVTVSS
VL: B1 VL with L44T, S64N, T67S, V69T
notes: IgG1 kappa; also called G8 H4.32/L4.29
B4: Humanized Ab #H7-H4.00/L4.29 (antibody, human IgG1, kappa)
heavy: not shown
light: SYELTQPPSVSVSPGQTARITCSGGSGRYYYGWYQQKPGQAPVTVIYSSTHRPSGIPERFSGSNSGSTTTLTISGVQAEDEADYYCGTADSSSYVFGGGTKLTVLGTVAAPSVFIFPPSDEQLKSGTASVVCLLNNFYPREAKVQWKVDNALQSGNSQESVTEQDSKDSTYSLSSTLTLSKADYEKHKVYACEVTHQGLSSPVTKSFNRGEC
notes: also called humanized anti-PAD4 antibody derived from H7 (IgG1 kappa)
B5: humanized anti-PAD4 antibody derived from A11 (H4.00/L4.29, IgG1 kappa) (antibody, V domains shown)
VH: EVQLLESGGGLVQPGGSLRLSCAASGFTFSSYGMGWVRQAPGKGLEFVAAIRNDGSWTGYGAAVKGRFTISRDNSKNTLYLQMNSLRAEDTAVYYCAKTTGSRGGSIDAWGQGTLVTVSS
VL: SYELTQPPSVSVSPGQTARITCSGGGRYYYGWYQQKPGQAPVTVIYANDKRPSGIPERFSGSNSGSTTTLTISGVQAEDEADYYCGSAETSSYVFGGGTKLTVLG
notes: also called humanized A11
B6: humanized anti-PAD4 antibody derived from G9 (H4.00/L4.29, IgG1 kappa) (antibody, V domains shown)
VH: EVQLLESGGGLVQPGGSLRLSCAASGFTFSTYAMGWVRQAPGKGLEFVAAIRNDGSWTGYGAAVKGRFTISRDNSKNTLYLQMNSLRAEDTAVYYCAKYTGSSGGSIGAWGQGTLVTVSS
VL: B5 VL
notes: also called humanized G9
B7: H7-derived, humanized anti-PAD4 antibody (IgG4A) (antibody)
heavy: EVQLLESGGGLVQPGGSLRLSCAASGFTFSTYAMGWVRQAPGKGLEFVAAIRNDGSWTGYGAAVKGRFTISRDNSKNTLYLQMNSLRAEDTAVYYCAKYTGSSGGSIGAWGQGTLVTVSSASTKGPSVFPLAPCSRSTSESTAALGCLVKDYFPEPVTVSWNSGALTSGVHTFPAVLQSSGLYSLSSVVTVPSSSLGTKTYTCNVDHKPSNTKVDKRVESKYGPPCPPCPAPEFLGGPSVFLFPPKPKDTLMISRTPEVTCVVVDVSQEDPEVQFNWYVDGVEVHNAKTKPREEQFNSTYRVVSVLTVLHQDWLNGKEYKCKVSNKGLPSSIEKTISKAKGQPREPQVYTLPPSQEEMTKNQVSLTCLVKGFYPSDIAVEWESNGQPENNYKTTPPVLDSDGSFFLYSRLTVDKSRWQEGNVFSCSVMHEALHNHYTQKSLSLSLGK
light: SYELTQPPSVSVSPGQTARITCSGGSGRYYYGWYQQKPGQAPVTVIYSSTHRPSGIPERFSGSNSGSTTTLTISGVQAEDEADYYCGTADSSSYVFGGGTKLTVLGQPKAAPSVTLFPPSSEELQANKATLVCLISDFYPGAVTVAWKADSSPVKAGVETTTPSKQSNNKYAASSYLSLTPEQWKSHRSYSCQVTHEGSTVEKTVAPTECS
notes: it may be this one; also called humanized anti-PAD4 antibody (IgG4A) derived from H7

The binders below were run against T1, full-length recombinant human PAD4 (human, UniProt Q9UM07 1-663) (assay: ELISA, immobilized human PAD4).
T1 construct: Full-length recombinant; also called peptidylarginine deiminase 4
T1 sequence (Q9UM07 whole entry): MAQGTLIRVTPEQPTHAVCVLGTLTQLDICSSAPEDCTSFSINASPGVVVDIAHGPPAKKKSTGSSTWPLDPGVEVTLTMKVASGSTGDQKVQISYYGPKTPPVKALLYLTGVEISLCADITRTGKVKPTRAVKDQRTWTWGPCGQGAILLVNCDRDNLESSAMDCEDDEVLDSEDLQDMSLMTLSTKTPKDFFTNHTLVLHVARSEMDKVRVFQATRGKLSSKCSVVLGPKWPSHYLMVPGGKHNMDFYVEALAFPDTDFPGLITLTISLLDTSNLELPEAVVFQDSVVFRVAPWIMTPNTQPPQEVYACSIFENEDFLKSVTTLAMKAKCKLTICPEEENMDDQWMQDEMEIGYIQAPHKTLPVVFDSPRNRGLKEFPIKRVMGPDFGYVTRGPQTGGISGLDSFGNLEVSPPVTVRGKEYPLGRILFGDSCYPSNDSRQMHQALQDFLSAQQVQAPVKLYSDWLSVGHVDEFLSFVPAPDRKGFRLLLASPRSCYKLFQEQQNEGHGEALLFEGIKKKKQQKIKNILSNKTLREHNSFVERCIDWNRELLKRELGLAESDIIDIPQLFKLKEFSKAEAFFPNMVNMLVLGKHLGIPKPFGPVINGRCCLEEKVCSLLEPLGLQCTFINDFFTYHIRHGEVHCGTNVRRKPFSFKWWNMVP

Binder | O.D. 490/630 at 0.0078125 µg/mL | O.D. 490/630 at 0.015625 µg/mL | O.D. 490/630 at 0.03125 µg/mL | O.D. 490/630 at 0.0625 µg/mL | O.D. 490/630 at 0.125 µg/mL | O.D. 490/630 at 0.25 µg/mL | O.D. 490/630 at 0.5 µg/mL | O.D. 490/630 at 1 µg/mL
B1 | 0.131 | 0.247 | 0.454 | 0.806 | 1.31 | 1.7 | 1.84 | 1.88
B2 | 1.2 | 1.55 | 1.88 | 1.88 | 1.85 | 1.84 | 1.82 | 1.8
B3 | 1.26 | 1.69 | 1.88 | 1.9 | 1.89 | 1.85 | 1.84 | 1.84

Biological target: T1, full-length recombinant human PAD4
Assay: ELISA, immobilized human PAD4
Remark: another data set of the same source

Binder | EC50 (read off the curve) [ng/mL]
B1 | ~80

Biological target: T1, full-length recombinant human PAD4
Assay: ELISA, immobilized human PAD4
Remark: another data set of the same source

Binder | EC50 (read off the curve) [ng/mL] | O.D. 490/630 at 0 µg/mL (blank) | O.D. 490/630 at 0.000064 µg/mL | O.D. 490/630 at 0.00032 µg/mL | O.D. 490/630 at 0.0016 µg/mL | O.D. 490/630 at 0.008 µg/mL | O.D. 490/630 at 0.04 µg/mL | O.D. 490/630 at 0.2 µg/mL | O.D. 490/630 at 1 µg/mL
B2 | ~2 | 0.069 | 0.139 | 0.287 | 0.851 | 1.79 | 2.12 | 2.1 | 2.06
B4 | ~3 | 0.083 | 0.13 | 0.269 | 0.766 | 1.72 | 2.1 | 2.07 | 2.08
B5 | ~3 | 0.064 | 0.122 | 0.245 | 0.733 | 1.7 | 2.08 | 2.08 | 2.08
B6 | ~3 | 0.069 | 0.116 | 0.252 | 0.785 | 1.66 | 2.09 | 2.03 | 2.06

Biological target: T1, full-length recombinant human PAD4
Assay: ELISA, immobilized human PAD4
Remark: another data set of the same source

Binder | EC50 (read off the curve) [ng/mL]
B7 | ~4

These binders were tested against T1, full-length recombinant human PAD4 (assay: SPR (Biacore T200), antibody captured, human PAD4 analyte).
Text: The humanized anti-PAD4 antibodies derived from G8 and H7 were subjected to Biacore (GE Healthcare, Biacore T200) assay to evaluate their affinity. At that time, the combination of the frameworks was such that the H-chain framework was H4.00 and the L-chain framework was L4.29. The class of each antibody used was IgG1κ. Full-length recombinant human PAD4 was used as an antigen. A Human Antibody Capture kit (GE Healthcare, BR-1008-39) was used for the affinity assay. Specifically, in accordance with the standard protocol provided by the manufacture, NHS/EDC was used and an amine coupling method, in which a free carboxyl group is fixed on a surface of a CM5 chip, was used to immobilize a rabbit anti-human polyclonal antibody on the surface of a CM5 chip. Next, the humanized anti-PAD4 antibodies were each captured by the rabbit anti-human polyclonal antibody. Human PAD4 at each concentration was subjected to Biacore T200 measurement to create a kinetic sensorgram.

Binder | Kd [nM] | koff [s⁻¹] | kon [M⁻¹ s⁻¹]
B2 | 1.95 | 0.0002 | 103000
B4 | 8.28 | 0.000507 | 61300
